T1: PUF4 RNA-binding domain (Saccharomyces cerevisiae, UniProt P25339 537-888)
T1 sequence: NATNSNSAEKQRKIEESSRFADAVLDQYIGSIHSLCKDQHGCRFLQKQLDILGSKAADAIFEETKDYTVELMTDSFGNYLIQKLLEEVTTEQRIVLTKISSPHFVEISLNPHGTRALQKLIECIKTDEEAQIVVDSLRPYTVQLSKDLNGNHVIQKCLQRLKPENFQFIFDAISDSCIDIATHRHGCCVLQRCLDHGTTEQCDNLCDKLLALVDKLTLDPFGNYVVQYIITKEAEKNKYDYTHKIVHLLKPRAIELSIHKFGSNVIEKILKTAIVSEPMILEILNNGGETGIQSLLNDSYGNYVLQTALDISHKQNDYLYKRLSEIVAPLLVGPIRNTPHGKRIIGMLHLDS


Target: T1, PUF4 RNA-binding domain
Assay: Mg; RNA-MaP; 20 mM Na-HEPES pH 7.4, 30 mM KOAc, 0.75 mM MgCl2, 0.1% Tween-20, 5% glycerol, 0.1 mg/mL BSA, 2 mM DTT; 25 C; 0.0125-409.6 nM protein
Conditions: tags: N-His6-TEV cleaved; C-SNAP kept, Cy3B-labelled; label: tethered on chip by stalled RNA polymerase

Row | Binder | Kd
1 | UCUCUUUGUAAUAAUUCUCUU (ssRNA) [Ic_S1_P4E.1_K4.1_C4.1_H4.1_A4.1_[T5A]_[A6T]_[T7A]_F4.1_[T8A]_[A9T]_T4.1] | 172 nM
2 | UCUCUUUGUAAUCGAUCUCUU (ssRNA) [Ic_S1_P4E.1_K4.1_C4.1_H4.1_A4.1_[T5A]_[A6T]_[T7C]_F4.1_[T8G]_T4.1] | 1160 nM
3 | UCUCUUUGUAAUCUCUCUCUU (ssRNA) [Ic_S1_P4E.1_K4.1_C4.1_H4.1_A4.1_[T5A]_[A6T]_[T7C]_F4.1_[A9C]_T4.1] | 74.6 nM
4 | UCUCUUUGUAAUGCAUCUCUU (ssRNA) [Ic_S1_P4E.1_K4.1_C4.1_H4.1_A4.1_[T5A]_[A6T]_[T7G]_F4.1_[T8C]_T4.1] | 642 nM
5 | UCUCUUUGUAAUCCCUCUCUU (ssRNA) [Ic_S1_P4E.1_K4.1_C4.1_H4.1_A4.1_[T5A]_[A6T]_[T7C]_F4.1_[T8C]_[A9C]_T4.1] | 1070 nM
6 | UCUCUUUGUAAACCCUCUCUU (ssRNA) [Ic_S1_P4E.1_K4.1_C4.1_H4.1_A4.1_[T5A]_[T7C]_F4.1_[T8C]_[A9C]_T4.1] | 1020 nM
7 | UCUCUUUGUAAAGCGUCUCUU (ssRNA) [Ic_S1_P4E.1_K4.1_C4.1_H4.1_A4.1_[T5A]_[T7G]_F4.1_[T8C]_[A9G]_T4.1] | 2010 nM
8 | UCUCUUUGUAAUUGGUCUCUU (ssRNA) [Ic_S1_P4E.1_K4.1_C4.1_H4.1_A4.1_[T5A]_[A6T]_F4.1_[T8G]_[A9G]_T4.1] | 1880 nM
9 | UCUCUUUGUAAUAGCUCUCUU (ssRNA) [Ic_S1_P4E.1_K4.1_C4.1_H4.1_A4.1_[T5A]_[A6T]_[T7A]_F4.1_[T8G]_[A9C]_T4.1] | 941 nM
10 | UCUCUUUGUAAUUGUUCUCUU (ssRNA) [Ic_S1_P4E.1_K4.1_C4.1_H4.1_A4.1_[T5A]_[A6T]_F4.1_[T8G]_[A9T]_T4.1] | 98.4 nM
11 | UCUCUUUGUAAUUUGUCUCUU (ssRNA) [Ic_S1_P4E.1_K4.1_C4.1_H4.1_A4.1_[T5A]_[A6T]_F4.1_[A9G]_T4.1] | 28.5 nM
12 | UCUCUUUGUAAUCGCUCUCUU (ssRNA) [Ic_S1_P4E.1_K4.1_C4.1_H4.1_A4.1_[T5A]_[A6T]_[T7C]_F4.1_[T8G]_[A9C]_T4.1] | 1820 nM
13 | UCUCUUUGUAACUUCUCUCUU (ssRNA) [Ic_S1_P4E.1_K4.1_C4.1_H4.1_A4.1_[T5A]_[A6C]_F4.1_[A9C]_T4.1] | 113 nM
14 | UCUCUUUGUAAUUUCUCUCUU (ssRNA) [Ic_S1_P4E.1_K4.1_C4.1_H4.1_A4.1_[T5A]_[A6T]_F4.1_[A9C]_T4.1] | 83.9 nM
15 | UCUCUUUGUUUAUCUCUCUU (ssRNA) [Ib_S1_P3E.1_K3.1_C3.1_H3.1_[A4T]_A3.1_F3.1_[A8C]_T3.1] | 1280 nM
16 | UCUCUUUGUAAACCGUCUCUU (ssRNA) [Ic_S1_P4E.1_K4.1_C4.1_H4.1_A4.1_[T5A]_[T7C]_F4.1_[T8C]_[A9G]_T4.1] | 951 nM
17 | UCUCUUUGUAAACACUCUCUU (ssRNA) [Ic_S1_P4E.1_K4.1_C4.1_H4.1_A4.1_[T5A]_[T7C]_F4.1_[T8A]_[A9C]_T4.1] | 565 nM
18 | UCUCUUUGUAAUUUUUCUCUU (ssRNA) [Ic_S1_P4E.1_K4.1_C4.1_H4.1_A4.1_[T5A]_[A6T]_F4.1_[A9T]_T4.1] | 34.7 nM
19 | UCUCUUUGUAACUAAUCUCUU (ssRNA) [Ic_S1_P4E.1_K4.1_C4.1_H4.1_A4.1_[T5A]_[A6C]_F4.1_[T8A]_T4.1] | 173 nM
20 | UCUCUUUGUAAUUCGUCUCUU (ssRNA) [Ic_S1_P4E.1_K4.1_C4.1_H4.1_A4.1_[T5A]_[A6T]_F4.1_[T8C]_[A9G]_T4.1] | 517 nM

Row | Binder | Kd
21 | UCUCUUUGUUUAUUUCUCUU (ssRNA) [Ib_S1_P3E.1_K3.1_C3.1_H3.1_[A4T]_A3.1_F3.1_[A8T]_T3.1] | 426 nM
22 | UCUCUUUGUAACUUGUCUCUU (ssRNA) [Ic_S1_P4E.1_K4.1_C4.1_H4.1_A4.1_[T5A]_[A6C]_F4.1_[A9G]_T4.1] | 62.5 nM
23 | UCUCUUUGUAAUUAUUCUCUU (ssRNA) [Ic_S1_P4E.1_K4.1_C4.1_H4.1_A4.1_[T5A]_[A6T]_F4.1_[T8A]_[A9T]_T4.1] | 92.4 nM
24 | UCUCUUUGUAAUAACUCUCUU (ssRNA) [Ic_S1_P4E.1_K4.1_C4.1_H4.1_A4.1_[T5A]_[A6T]_[T7A]_F4.1_[T8A]_[A9C]_T4.1] | 642 nM
25 | UCUCUUUGUAAUCAUUCUCUU (ssRNA) [Ic_S1_P4E.1_K4.1_C4.1_H4.1_A4.1_[T5A]_[A6T]_[T7C]_F4.1_[T8A]_[A9T]_T4.1] | 413 nM
26 | UCUCUUUGUAAUAUGUCUCUU (ssRNA) [Ic_S1_P4E.1_K4.1_C4.1_H4.1_A4.1_[T5A]_[A6T]_[T7A]_F4.1_[A9G]_T4.1] | 12.5 nM
27 | UCUCUUUGUAAUGGCUCUCUU (ssRNA) [Ic_S1_P4E.1_K4.1_C4.1_H4.1_A4.1_[T5A]_[A6T]_[T7G]_F4.1_[T8G]_[A9C]_T4.1] | 2140 nM
28 | UCUCUUUGUAAUUGAUCUCUU (ssRNA) [Ic_S1_P4E.1_K4.1_C4.1_H4.1_A4.1_[T5A]_[A6T]_F4.1_[T8G]_T4.1] | 712 nM
29 | UCUCUUUGUAAUCCUUCUCUU (ssRNA) [Ic_S1_P4E.1_K4.1_C4.1_H4.1_A4.1_[T5A]_[A6T]_[T7C]_F4.1_[T8C]_[A9T]_T4.1] | 484 nM
30 | UCUCUUUGUAAUUACUCUCUU (ssRNA) [Ic_S1_P4E.1_K4.1_C4.1_H4.1_A4.1_[T5A]_[A6T]_F4.1_[T8A]_[A9C]_T4.1] | 670 nM
31 | UCUCUUUGUAAACAGUCUCUU (ssRNA) [Ic_S1_P4E.1_K4.1_C4.1_H4.1_A4.1_[T5A]_[T7C]_F4.1_[T8A]_[A9G]_T4.1] | 508 nM
32 | UCUCUUUGUAAUACCUCUCUU (ssRNA) [Ic_S1_P4E.1_K4.1_C4.1_H4.1_A4.1_[T5A]_[A6T]_[T7A]_F4.1_[T8C]_[A9C]_T4.1] | 713 nM
33 | UCUCUUUGUAAUGUUUCUCUU (ssRNA) [Ic_S1_P4E.1_K4.1_C4.1_H4.1_A4.1_[T5A]_[A6T]_[T7G]_F4.1_[A9T]_T4.1] | 95.2 nM
34 | UCUCUUUGUAAAGCAUCUCUU (ssRNA) [Ic_S1_P4E.1_K4.1_C4.1_H4.1_A4.1_[T5A]_[T7G]_F4.1_[T8C]_T4.1] | 387 nM
35 | UCUCUUUGUAAUACUUCUCUU (ssRNA) [Ic_S1_P4E.1_K4.1_C4.1_H4.1_A4.1_[T5A]_[A6T]_[T7A]_F4.1_[T8C]_[A9T]_T4.1] | 603 nM
36 | UCUCUUUGUAAAGUCUCUCUU (ssRNA) [Ic_S1_P4E.1_K4.1_C4.1_H4.1_A4.1_[T5A]_[T7G]_F4.1_[A9C]_T4.1] | 406 nM
37 | UCUCUUUGUAAUGUAUCUCUU (ssRNA) [Ic_S1_P4E.1_K4.1_C4.1_H4.1_A4.1_[T5A]_[A6T]_[T7G]_F4.1_T4.1] | 11.2 nM
38 | UCUCUUUGUAAUUAGUCUCUU (ssRNA) [Ic_S1_P4E.1_K4.1_C4.1_H4.1_A4.1_[T5A]_[A6T]_F4.1_[T8A]_[A9G]_T4.1] | 126 nM
39 | UCUCUUUGUAAUCUAUCUCUU (ssRNA) [Ic_S1_P4E.1_K4.1_C4.1_H4.1_A4.1_[T5A]_[A6T]_[T7C]_F4.1_T4.1] | 8.88 nM
40 | UCUCUUUGUAAUGUGUCUCUU (ssRNA) [Ic_S1_P4E.1_K4.1_C4.1_H4.1_A4.1_[T5A]_[A6T]_[T7G]_F4.1_[A9G]_T4.1] | 105 nM

Row | Binder | Kd
41 | UCUCUUUGUUUAUGUCUCUU (ssRNA) [Ib_S1_P3E.1_K3.1_C3.1_H3.1_[A4T]_A3.1_F3.1_[A8G]_T3.1] | 1460 nM
42 | UCUCUUUGUAAUAUAUCUCUU (ssRNA) [Ic_S1_P4E.1_K4.1_C4.1_H4.1_A4.1_[T5A]_[A6T]_[T7A]_F4.1_T4.1] | 2.68 nM
43 | UCUCUUUGUAACUAUUCUCUU (ssRNA) [Ic_S1_P4E.1_K4.1_C4.1_H4.1_A4.1_[T5A]_[A6C]_F4.1_[T8A]_[A9T]_T4.1] | 93.1 nM
44 | UCUCUUUGUAAUUAAUCUCUU (ssRNA) [Ic_S1_P4E.1_K4.1_C4.1_H4.1_A4.1_[T5A]_[A6T]_F4.1_[T8A]_T4.1] | 216 nM
45 | UCUCUUUGUAAAGCUUCUCUU (ssRNA) [Ic_S1_P4E.1_K4.1_C4.1_H4.1_A4.1_[T5A]_[T7G]_F4.1_[T8C]_[A9T]_T4.1] | 658 nM
46 | UCUCUUUGUGUAUCUCUCUU (ssRNA) [Ib_S1_P3E.1_K3.1_C3.1_H3.1_[A4G]_A3.1_F3.1_[A8C]_T3.1] | 63.7 nM
47 | UCUCUUUGUAAACGCUCUCUU (ssRNA) [Ic_S1_P4E.1_K4.1_C4.1_H4.1_A4.1_[T5A]_[T7C]_F4.1_[T8G]_[A9C]_T4.1] | 833 nM
48 | UCUCUUUGUAAUUCUUCUCUU (ssRNA) [Ic_S1_P4E.1_K4.1_C4.1_H4.1_A4.1_[T5A]_[A6T]_F4.1_[T8C]_[A9T]_T4.1] | 123 nM
49 | UCUCUUUGUAAUUGCUCUCUU (ssRNA) [Ic_S1_P4E.1_K4.1_C4.1_H4.1_A4.1_[T5A]_[A6T]_F4.1_[T8G]_[A9C]_T4.1] | 682 nM
50 | UCUCUUUGUAAUAUCUCUCUU (ssRNA) [Ic_S1_P4E.1_K4.1_C4.1_H4.1_A4.1_[T5A]_[A6T]_[T7A]_F4.1_[A9C]_T4.1] | 36 nM
51 | UCUCUUUGUAAUCUUUCUCUU (ssRNA) [Ic_S1_P4E.1_K4.1_C4.1_H4.1_A4.1_[T5A]_[A6T]_[T7C]_F4.1_[A9T]_T4.1] | 56.3 nM
52 | UCUCUUUGUAACUACUCUCUU (ssRNA) [Ic_S1_P4E.1_K4.1_C4.1_H4.1_A4.1_[T5A]_[A6C]_F4.1_[T8A]_[A9C]_T4.1] | 422 nM
53 | UCUCUUUGUAACUUUUCUCUU (ssRNA) [Ic_S1_P4E.1_K4.1_C4.1_H4.1_A4.1_[T5A]_[A6C]_F4.1_[A9T]_T4.1] | 58.3 nM
54 | UCUCUUUGUAUCUAUCUCUU (ssRNA) [Ic_S1_P3E.1_K3.1_C3.1_H3.1_A3.1_[A6C]_F3.1_T3.1] | 48.6 nM
55 | UCUCUUUGUAAUGUCUCUCUU (ssRNA) [Ic_S1_P4E.1_K4.1_C4.1_H4.1_A4.1_[T5A]_[A6T]_[T7G]_F4.1_[A9C]_T4.1] | 476 nM
56 | UCUCUUUGUAAUGGUUCUCUU (ssRNA) [Ic_S1_P4E.1_K4.1_C4.1_H4.1_A4.1_[T5A]_[A6T]_[T7G]_F4.1_[T8G]_[A9T]_T4.1] | 764 nM
57 | UCUCUUUGUAAUCUGUCUCUU (ssRNA) [Ic_S1_P4E.1_K4.1_C4.1_H4.1_A4.1_[T5A]_[A6T]_[T7C]_F4.1_[A9G]_T4.1] | 76.5 nM
58 | UCUCUUUGUAAAGCCUCUCUU (ssRNA) [Ic_S1_P4E.1_K4.1_C4.1_H4.1_A4.1_[T5A]_[T7G]_F4.1_[T8C]_[A9C]_T4.1] | 1020 nM
59 | UCUCUUUGUCUAUUUCUCUU (ssRNA) [Ib_S1_P3E.1_K3.1_C3.1_H3.1_[A4C]_A3.1_F3.1_[A8T]_T3.1] | 823 nM
